21 sequences from the supplement of paper PMC9170038 can be followed below.

In the series the test system is K4 kissing-loop RNA reporter. As to the kind of experiment: apparent KD of K4 kissing-loop reporter; higher = weaker reporter binding. The note with it: Eterna round: R107. How it is done:
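RNA-MaP round R107: designed RNA switches with theophylline, tryptophan, arginine or FMN aptamers are transcribed on-chip within common flanks. They are titrated with a labelled K4 kissing-loop RNA reporter in RNA-MaP buffer (100 mM Tris pH 7.5, 80 mM KCl, 4 mM MgCl2), without ligand or with the indicated ligand. Median apparent KD per design.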

[1] abbreviates: input ligand: theophylline 20 uM.
The mark [2] stands for this setting: input ligand: tryptophan 2.4 mM.
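Note: bound reporter read as fluorescence of individual clusters on recovered sequencing chips by microscopy, with normalized cluster intensities fitted with a binding model.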

With “AAGCAGUCACUCGAACCCAUCGAAGAUGGUCGAGGACCGGUACGGCCGCCACUCGGAGUGAUGUUCCGCAGACUGCAAAAUAAAA”, the “apparent KD of K4 kissing-loop reporter” value is 376 nM (input ligand: FMN 200 uM); 464 nM (input ligand: arginine 13.2 mM); 426 nM (input ligand: none); 511 nM under setting [1]; 312 nM under setting [2].

As for “AAUUUAUUAACUGAUACCAGACUUAAUAAAUUUUAAAUCACUAGUGAUGUUAGUGAAUAUGUCCCUUGGCAGCAGUAUUUAUUAA [JR_SSTheophyB_Sub023]”, the “apparent KD of K4 kissing-loop reporter” value was 132 nM (input ligand: FMN 200 uM); 134 nM (input ligand: arginine 13.2 mM); 125 nM (input ligand: none); 121 nM under setting [1]; 115 nM under setting [2].

For the sequence “UCCUGCAAUCGUCCACGAAAGUGGAUUGAUACCAGAGUCGAAAGACUCCCUUGGCAGCGAGUGAUGUUCGAAGCAGGUAAAUAAA”, the “apparent KD of K4 kissing-loop reporter” value (input ligand: FMN 200 uM) stood at 432 nM; the “apparent KD of K4 kissing-loop reporter” value (input ligand: arginine 13.2 mM) was determined as 365 nM; the “apparent KD of K4 kissing-loop reporter” value (input ligand: none) stood at 417 nM; the “apparent KD of K4 kissing-loop reporter” value under setting [1] stood at 363 nM; the “apparent KD of K4 kissing-loop reporter” value under setting [2] was determined as 337 nM.

Consider “AAAUUGUUUAGAGGAUAUUCUUUAUUCGACAUAACCUUCUAUAAGGUGCAGUGAUGUUGCAAUAUAGGAGAAGGUUGAGUGAUAA [Exclusion FMN B Gf 15]”, for which the “apparent KD of K4 kissing-loop reporter” value is 135 nM (input ligand: FMN 200 uM); 118 nM (input ligand: arginine 13.2 mM); 136 nM (input ligand: none); 121 nM under setting [1]; 113 nM under setting [2].

Take “UUUGGUUUCUCGGCCGCCACUCGUUGGUUAUGGGCUUCAGGGAUAUAGUGAUGUUAUGUAUAGAAGAGGACCGGGAGAAGGUUUG [ExTryptoB.Dt]”: the “apparent KD of K4 kissing-loop reporter” value by setting is: (input ligand: FMN 200 uM) 343 nM; (input ligand: arginine 13.2 mM) 343 nM; (input ligand: none) 318 nM; under setting [1], 408 nM; under setting [2], 301 nM.

Consider “GUAUGUGAUGGAAACAUCGCAUACACUGAUACCAGUAUCGAUAGAUACCCUUGGCAGCAGAAAACUGCAAUUGGAGUGAUGUUCC [Ex Theophylline A K4 1]”, for which the “apparent KD of K4 kissing-loop reporter” value is 213 nM (input ligand: FMN 200 uM); 175 nM (input ligand: arginine 13.2 mM); 229 nM (input ligand: none); 216 nM under setting [1]; 201 nM under setting [2].

In the case of “CAUACGCAUGGAGGAUAUGGGAUUACUCAUAUUACCCUGUAACAGGUAUCUCAGUGAUGUUGAGACUCAGAAGGCCAUGUGUAUG [Ex FMN B 23]”, the “apparent KD of K4 kissing-loop reporter” value is, setting by setting: (input ligand: FMN 200 uM) 615 nM; (input ligand: arginine 13.2 mM) 289 nM; (input ligand: none) 348 nM; under setting [1], 370 nM; under setting [2], 344 nM.

On to “GUUACGCAUGGAAGGAGCGCUCUCAUGCUUAAUAACACAGUGAUGUUGUGAAUUUGCAUAAAGCAGGUAGGUCGCCAUGUGUAAC [Ex Arginine B K4 8]”, for which the “apparent KD of K4 kissing-loop reporter” value runs as follows: (input ligand: FMN 200 uM) 399 nM; (input ligand: arginine 13.2 mM) 303 nM; (input ligand: none) 359 nM; under setting [1], 291 nM; under setting [2], 332 nM.

With “AAUACAGUACAACCGAGUGGAACACAAAUACGAGGACCGGUACGGCCGCCACUCGUGCAGAAUUUCAGUGAUGUUGAAAUACUGC [Exclusion Tryptophan A GF 6]”, the “apparent KD of K4 kissing-loop reporter” value (input ligand: FMN 200 uM) turned out to be 165 nM; the “apparent KD of K4 kissing-loop reporter” value (input ligand: arginine 13.2 mM) turned out to be 125 nM; the “apparent KD of K4 kissing-loop reporter” value (input ligand: none) came to 122 nM; the “apparent KD of K4 kissing-loop reporter” value under setting [1] was 162 nM; the “apparent KD of K4 kissing-loop reporter” value under setting [2] came out at 149 nM.

With “GGUGCUGUCUGUGCCGCCCUCCUCGUUCCUCGAGGACCGGUACGGCCGCCACUCGAGUGAUGUUUGGGUAGCGAUCCCUGCUAGC [Bdazzled - #16 Exc. Tryptophan A]”, the “apparent KD of K4 kissing-loop reporter” value runs as follows: (input ligand: FMN 200 uM) 792 nM; (input ligand: arginine 13.2 mM) 719 nM; (input ligand: none) 1060 nM; under setting [1], 801 nM; under setting [2], 696 nM.

“GUAUCAGUGAUGUUGGUAGGCGAGCGGGAUACCAGCCAAGACUCAGGCCCUUGGCAGCCCACAUAUCCCACGUAGAUAGUAGCUC [Same State - Theophylline A (Freestyle 15)]”: the “apparent KD of K4 kissing-loop reporter” value came to 155 nM (input ligand: FMN 200 uM); 95.6 nM (input ligand: arginine 13.2 mM); 149 nM (input ligand: none); 139 nM under setting [1]; 133 nM under setting [2].

Regarding “UUUAAACAUAGUGAUGUUAUGUAACAAUGACGAGGACCGGUACGGCCGCCACUCGAGAGAGAUGAUGGUAAAAUAAAUAAUUUUC [#10 K4 Tryptophan A Same State]”, the “apparent KD of K4 kissing-loop reporter” value (input ligand: FMN 200 uM) stood at 105 nM; the “apparent KD of K4 kissing-loop reporter” value (input ligand: arginine 13.2 mM) is 124 nM; the “apparent KD of K4 kissing-loop reporter” value (input ligand: none) is 107 nM; the “apparent KD of K4 kissing-loop reporter” value under setting [1] came to 113 nM; the “apparent KD of K4 kissing-loop reporter” value under setting [2] was determined as 90.6 nM.

“UAAGCUCUGACGGCCGCCACUGCACGUGAUCCAGUAGUGGCUAACAUGAGUGAUGUUCAUGUAAGCAGGACCGGGUCAGAGCUAA [KL-XTryp-B13 #analogue]”: the “apparent KD of K4 kissing-loop reporter” value is, setting by setting: (input ligand: FMN 200 uM) 103 nM; (input ligand: arginine 13.2 mM) 87.9 nM; (input ligand: none) 94.7 nM; under setting [1], 81.7 nM; under setting [2], 120 nM.

“UACAUAUAGUUAUUUCUACAUUUAUUUAGUCAGGAUAUCGAUUAGACGAGAAGGGACAAUAUCAAGUGAUGUUUGAUAAUUCAAA [JR_ExcFMNA_Sub011]”: the “apparent KD of K4 kissing-loop reporter” value (input ligand: FMN 200 uM) is 75.7 nM; the “apparent KD of K4 kissing-loop reporter” value (input ligand: arginine 13.2 mM) came to 111 nM; the “apparent KD of K4 kissing-loop reporter” value (input ligand: none) is 68.4 nM; the “apparent KD of K4 kissing-loop reporter” value under setting [1] amounted to 100 nM; the “apparent KD of K4 kissing-loop reporter” value under setting [2] was 53.2 nM.

“GGUAGCAUGGCGGCCGCCACUGCAAAGCAUAGCUACGGAAACGUAGCUACAGAGUGAUGUUCUGGCAGGACCGGGCCAUGCUACC”: the “apparent KD of K4 kissing-loop reporter” value came to 675 nM (input ligand: FMN 200 uM); 487 nM (input ligand: arginine 13.2 mM); 692 nM (input ligand: none); 683 nM under setting [1]; 330 nM under setting [2].

Take “UUUGUAUCGGGAAGGAGCGUGAAUGAUAAUGAAUAUAGUGAUGUUAUAUAUAAGAACGAAUCACAGGUAGGUCGCCCGGAUGACU [SSArgB.O]”: the “apparent KD of K4 kissing-loop reporter” value by setting is: (input ligand: FMN 200 uM) 747 nM; (input ligand: arginine 13.2 mM) 555 nM; (input ligand: none) 515 nM; under setting [1], 729 nM; under setting [2], 364 nM.

For the sequence “AGGUCCGAGCCCGUAAGGGCUCGGACCUGUUAGGAUAUGACGUUAUUCAGAAGGGAUGGGUGGAGUGAUGUUCCACCCGCAAGGG [#2 Same State - FMN A Attempt #10 (HarryS)]”, the “apparent KD of K4 kissing-loop reporter” value (input ligand: FMN 200 uM) came to 98.8 nM; the “apparent KD of K4 kissing-loop reporter” value (input ligand: arginine 13.2 mM) is 102 nM; the “apparent KD of K4 kissing-loop reporter” value (input ligand: none) stood at 93.2 nM; the “apparent KD of K4 kissing-loop reporter” value under setting [1] was determined as 91.7 nM; the “apparent KD of K4 kissing-loop reporter” value under setting [2] worked out at 95.7 nM.

“UACAAUUUGGCGGCCGCCACUGACCAUAGCCUUCGAUGGCCAGUGAUGUUGGCCUCUGGCUCUAACAGGACCGGGCCAAAUUAUG [Maeste]”: the “apparent KD of K4 kissing-loop reporter” value is 313 nM (input ligand: FMN 200 uM); 216 nM (input ligand: arginine 13.2 mM); 271 nM (input ligand: none); 245 nM under setting [1]; 117 nM under setting [2].

For “GGUAGCAUGGCGGCCGCCACUGUCUAGUGAUGUUAGACCCGACGUGGAUUCAAGACAGUCGGAAACAGGACCGGGCCAUGCUACC”, the “apparent KD of K4 kissing-loop reporter” value (input ligand: FMN 200 uM) is 390 nM; the “apparent KD of K4 kissing-loop reporter” value (input ligand: arginine 13.2 mM) was 229 nM; the “apparent KD of K4 kissing-loop reporter” value (input ligand: none) stood at 330 nM; the “apparent KD of K4 kissing-loop reporter” value under setting [1] came to 163 nM; the “apparent KD of K4 kissing-loop reporter” value under setting [2] stood at 179 nM.

As for “GUAACCUUGCUCGAGUGAUGUUCGAGCGAAGGAGCGCGAGAAAUCGCAGGUAGGUCGCGCUCGAAAUUUGAGCGAACAAUUAUUA [Arg A Ex t2]”, the “apparent KD of K4 kissing-loop reporter” value runs as follows: (input ligand: FMN 200 uM) 128 nM; (input ligand: arginine 13.2 mM) 125 nM; (input ligand: none) 138 nM; under setting [1], 123 nM; under setting [2], 113 nM.

As to “AAAUAAUGCAGUCACCCAGUGAUGUUGGAAGGAGCGUGCGAAAGCACAGGUAGGUCGCCAAUAAUGAUAAAGUUCAGUGGCUUUA [JR_Nu_ExcArginiA_Sub030]”, the “apparent KD of K4 kissing-loop reporter” value runs as follows: (input ligand: FMN 200 uM) 766 nM; (input ligand: arginine 13.2 mM) 682 nM; (input ligand: none) 454 nM; under setting [1], 464 nM; under setting [2], 659 nM.
